According to IntAct's records for PubMed 22274616:

B1: Protein PML (Homo sapiens), P29590 (parent)
chain: MEPAPARSPRPQQDPARPQEPTMPPPETPSEGRQPSPSPSPTERAPASEEEFQFLRCQQCQAEAKCPKLLPCLHTLCSGCLEASGMQCPICQAPWPLGADTPALDNVFFESLQRRLSVYRQIVDAQAVCTRCKESADFWCFECEQLLCAKCFEAHQWFLKHEARPLAELRNQSVREFLDGTRKTNNIFCSNPNHRTPTLTSIYCRGCSKPLCCSCALLDSSHSELKCDISAEIQQRQEELDAMTQALQEQDSAFGAVHAQMHAAVGQLGRARAETEELIRERVRQVVAHVRAQERELLEAVDARYQRDYEEMASRLGRLDAVLQRIRTGSALVQRMKCYASDQEVLDMHGFLRQALCRLRQEEPQSLQAAVRTDGFDEFKVRLQDLSSCITQGKDAAVSKKASPEAASTPRDPIDVDLPEEAERVKAQVQALGLAEAQPMAVVQSVPGAHPVPVYAFSIKGPSYGEDVSNTTTAQKRKCSQTQCPRKVIKMESEEGKEARLARSSPEQPRPSTSKAVSPPHLDGPPSPRSPVIGSEVFLPNSNHVASGAGEAEERVVVISSSEDSDAENSSSRELDDSSSESSDLQLEGPSTLRVLDENLADPQAEDRPLVFFDLKIDNETQKISQLAAVNRESKFRVVIQPEAFFSIYSKAVSLEVGLQHFLSFLSSMRRPILACYKLWGPGLPNFFRALEDINRLWEFQEAISGFLAALPLIRERVPGASSFKLKNLAQTYLARNMSERSAMAAVLAMRDLCRLLEVSPGPQLAQHVYPFSSLQCFASLQPLVQAAVLPRAEARLLALHNVSFMELLSAHRRDRQGGLKKYSRYLSLQTTTLPPAQPAFNLQALGTYFEGLLEGPALARAEGVSTPLAGRGLAERASQQS

Variants of: B1
Details: with per2_mouse Per2, O54943
Chain of per2_mouse Per2, O54943 (O54943 whole entry): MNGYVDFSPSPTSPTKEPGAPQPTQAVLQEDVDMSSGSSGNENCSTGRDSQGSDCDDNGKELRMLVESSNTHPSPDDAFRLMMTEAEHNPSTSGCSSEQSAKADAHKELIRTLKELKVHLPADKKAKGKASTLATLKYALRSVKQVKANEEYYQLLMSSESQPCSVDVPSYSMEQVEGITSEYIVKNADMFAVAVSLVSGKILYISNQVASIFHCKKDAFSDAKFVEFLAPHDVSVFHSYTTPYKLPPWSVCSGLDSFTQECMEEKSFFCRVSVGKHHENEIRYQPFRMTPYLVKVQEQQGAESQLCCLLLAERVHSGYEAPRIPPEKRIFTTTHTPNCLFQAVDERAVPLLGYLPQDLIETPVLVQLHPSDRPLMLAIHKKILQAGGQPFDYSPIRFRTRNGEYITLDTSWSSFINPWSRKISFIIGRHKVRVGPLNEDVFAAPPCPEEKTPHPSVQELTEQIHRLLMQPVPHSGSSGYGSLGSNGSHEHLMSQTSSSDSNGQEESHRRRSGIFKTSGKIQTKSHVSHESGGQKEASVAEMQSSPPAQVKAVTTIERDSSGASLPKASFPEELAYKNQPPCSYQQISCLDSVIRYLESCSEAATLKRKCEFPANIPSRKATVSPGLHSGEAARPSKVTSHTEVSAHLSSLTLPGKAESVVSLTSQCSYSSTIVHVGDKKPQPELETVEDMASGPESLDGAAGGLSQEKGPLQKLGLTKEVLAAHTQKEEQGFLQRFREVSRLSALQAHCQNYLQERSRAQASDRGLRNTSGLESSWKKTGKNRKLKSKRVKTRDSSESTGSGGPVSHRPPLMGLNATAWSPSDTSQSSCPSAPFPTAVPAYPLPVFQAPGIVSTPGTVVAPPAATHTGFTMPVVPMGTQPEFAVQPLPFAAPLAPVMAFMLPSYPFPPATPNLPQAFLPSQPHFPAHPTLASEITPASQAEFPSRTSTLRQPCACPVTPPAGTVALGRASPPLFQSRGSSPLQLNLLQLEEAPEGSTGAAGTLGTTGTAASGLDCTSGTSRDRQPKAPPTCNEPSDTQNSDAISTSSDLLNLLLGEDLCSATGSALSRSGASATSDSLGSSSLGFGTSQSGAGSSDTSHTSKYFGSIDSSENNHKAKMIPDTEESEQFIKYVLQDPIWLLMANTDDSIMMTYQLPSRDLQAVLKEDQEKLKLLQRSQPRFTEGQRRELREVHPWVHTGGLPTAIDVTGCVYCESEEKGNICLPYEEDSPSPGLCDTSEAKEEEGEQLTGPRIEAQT

effect of a mutation on the interaction | Variant
decreasing interaction strength | K487R
